Results: patent US20230040008A1, “ANTI-HER2 POLYPEPTIDES DERIVATIVES AS NEW DIAGNOSTIC MOLECULAR PROBES” (BRACCO IMAGING S.P.A., priority 2019, published 2023)
“Also recorded” adds a separate entry of the source.

How the values were obtained:
[1] = system: human (HSA), murine (MSA) and bovine (BSA) serum albumin; assay: ELISA control of binding to serum albumins during selection
Text: (§1) To selectively target HER2 receptor, a library of affitins has been enriched against the target by several consecutive rounds of screening (up to 6 rounds). The enrichment of anti-HER2 affitins has been followed after any selection round by ELISA assay monitoring, also controlling the condition of negligible binding to human (HSA), murine (MSA) and bovine (BSA) serum albumin.

[2] = system: SK-BR-3 breast adenocarcinoma cell line (overexpressing HER2 receptor); assay: Cell internalization assay (viability with Pe38 fusion), HER2 overexpressing cells; type: cell-based
Experimental: (§2) The cells internalization of Aff01 was evaluated using a dedicated cell-based assay. Briefly, Aff01 was tagged with SEQ ID NO: 3 (i.e. forming sequence Aff02-0) and then fused to a truncated portion of Pseudomonas exotoxin A, wherein the cell internalization domain of the toxin is removed, thus forming a final peptide with the sequence as set out in SEQ ID NO: 5. Such truncated form (Pe38) needs to be internalized by means of the Aff01 to keep its cytotoxic activity.
(§3) To test internalization, then, the viability of the breast adenocarcinoma cell line SK-BR-3 (overexpressing HER2 receptor) and of the breast cancer cell line MCF-7 (low expressing HER2 receptor) was measured at different nanofitin concentrations.

HER2 = HER2 (Homo sapiens, UniProt P04626); assay: ELISA monitoring of anti-HER2 affitin selection; type: binding; details: end of selection process
Text: as §1

[3] = system: MCF-7 breast cancer cell line (low expressing HER2 receptor); assay: Cell internalization assay (viability with Pe38 fusion), HER2 low expressing cells; type: cell-based; details: Aff01 tested as fusion Aff02-0/Pe38 (SEQ ID NO: 5); different nanofitin concentrations
Experimental: as §2, §3

[4] = target: T1, recombinant human protein hHER2 (R&D Systems) (human, UniProt P04626 23-652); assay: BLI (Octet), hHER2 on Protein A biosensors, 1:1 fit
T1 construct: also called human HER2 (hHER2) recombinant protein
Experimental: (§4) Affinity experiments were performed by Biolayer Interferometry (BLI) assay, using an Octet System and Protein A biosensors (ForteBio). Recombinant human protein hHER2 was purchased from R&D Systems (Minneapolis, US).
(§5) The affinity of the polypeptides of the invention for the target HER2 was measured by Biolayer interferometry assay. To this purpose, the protein A biosensors (ForteBio) were coated with human HER2 (hHER2) recombinant protein. After a brief wash with PBS, the coated sensor was assayed versus the affitin Aff02-0 at different concentrations (i.e. […], 500, 250, 125, 62.5, 31.3, 15.6 and 0 nM).
(§6) A curve fitting analysis was then performed in order to determine the dissociation equilibrium constant. The sensorgrams were analyzed using the Octet Data Analysis software 8.2 (ForteBio) with a 1:1 binding fit model to determine the dissociation equilibrium constant (Kd) and the related association and dissociation rate constants (kₒₙ and koff) with R² value assessing the fitting quality.

[5] = target: T2, human HER2 (hHER2) recombinant protein (Homo sapiens, UniProt P04626); assay: Biolayer interferometry (BLI) affinity assay on protein A biosensors coated with hHER2; details: 1:1 binding fit model
T2 construct: purchased R&D Systems
Experimental: as §4, §5
as §6, with “(kon” for “(kₒₙ”, “R^2” for “R²”
as §5, with “IRDye800CW-Aff02 conjugate to” for “polypeptides of the invention for”, “IRDye800CW-Aff02 conjugate” for “affitin Aff02-0”, “1000, 100, 10, 1, 0.1 ng/mL).” for “500, 250, 125, 62.5, 31.3, 15.6 and 0 nM).”
A steady state analysis was performed in order to determine the dissociation equilibrium constant. The sensorgrams were analyzed using the Octet Data Analysis software 8.2 (ForteBio) with a 1:1 binding fit model to determine the dissociation equilibrium constant (Kd).

[6] = target: T1, recombinant human protein hHER2 (R&D …); assay: BLI (Octet), hHER2 on Protein A biosensors, steady state analysis
[7] = design: species or system Balb/c nu/nu mice; details: mouse, in vivo
Experimental: In vivo imaging experiments were performed using the IVIS Spectrum In Vivo Imaging System (Perkin Elmer Inc.), equipped with 10 narrow band excitation filters (30 nm bandwidth) and 18 narrow band emission filters (20 nm bandwidth) spanning 430-850 nm.
In vivo optical imaging biodistribution of IRDye800CW-Aff02 was evaluated in healthy mice. Optical Imaging experiments on three healthy mice were performed using an IVIS Spectrum system after administration of IRDye800CW-Aff02 at a dose of 10 nmol/mouse, in an administration volume of 0.2 mL. The experiments were carried out at 15 min, 30 min, 1 h, 2 h, 4 h, 6 h, 24 h and 48 hours after intravenous administration of the conjugate.
Regions of interest (ROIs) were drawn on a reference background healthy region (hind leg's muscle) of the mouse and on whole body for each fluorescence image at every time point to evaluate signal intensity in the tissues, expressed as Average Radiant Efficiency (see FIG. 5, reporting the fluorescence signal curves of IRDye800CW-Aff02 administered 10 nmol/mouse in Balb/c nu/nu mice).
Pharmacokinetic analysis of the signal was performed to evaluate the half time of the tested product by using a mono-exponential decay model and the results are reported in Table 3:
After sacrifice, several organs were collected for the measure of residual fluorescence (after 48h). The measurements of fluorescence signal intensity have been obtained from the analysis of each organ selecting an area of interest (ROIs) at the center of each sample. The analyzed organs were: kidney, lung, spleen, liver, muscle and heart.

HER2/Fc chimeric protein = target: T3, HER2/Fc chimeric protein (Homo sapiens, UniProt P04626); assay: Competitive ELISA of Aff02 versus trastuzumab-biotin or pertuzumab-biotin; type: binding
T3 construct: Fc (immunoglobulin Fc fusion partner)
Text: A competitive ELISA assay has been developed in order to investigate if the epitope of the HER2/Neu antigen recognized by Aff02 polypeptide was distinct from the epitope recognized by the humanized monoclonal antibodies trastuzumab and pertuzumab, actually used in therapeutic treatments of HER2-positive tumors.
The first experiment, aimed at evaluating the quality of the assay, was a competitive ELISA assay carried out between trastuzumab and trastuzumab-biotin. Briefly, a Medisorp transparent plastic plate (96 wells, Thermo Scientific), was coated (64 wells) with 2.5 μg/mL of HER2/Fc chimeric protein in TBS pH 7.4 (1 h, RT). The wells were blocked with 0.5% BSA in TBS (1 h, RT).
At the end of the incubation, the plate was washed three times with 250 μL of TBS-T and incubated with Streptavidin-HRP 1:10000 in TBS-T (1 h at RT). The plate was washed again 3 times with TBS-T and developed 5 min with TMB reagent (100 μL). The reaction was blocked with 50 μL of sulfuric acid 2 M and read at 450 nm.
As positive control, the same experiment was repeated using an antibody anti RSGH TAG-HRP (1:4000) in place of streptavidin-HRP, in order to evaluate the curve affinity of Aff02 to HER2 receptor.
Briefly, a Medisorp transparent plastic plate (96 wells, Thermo Scientific) was coated (64 wells) with 2.5 μg/mL of Her2/Fc chimeric protein in TBS pH 7.4 (1 h, RT). The wells was blocked with 0.5% BSA in TBS (1 h, RT). […] At the end of the incubation, the plate was washed three times with 300 μL of TBS-T and incubated with Streptavidin-HRP 1:10000 or anti-RSGH TAG-HRP 1:4000 in TBS-T (1 h at RT). The plate was washed again 3 times with TBS-T and developed 5 min with TMB reagent (100 μL). The reaction was blocked with 50 μL of sulfuric acid 2 M and read at 450 nm.

B1: Aff01: 64 aac anti-HER2 affitin, SEQ ID NO: 1 (protein)
chain: VKVKFWGAGVEKEVDTSKITWVTRSGKYVIFTYDDNGKAGPGRVPEKDAPKELLDMLARAEREK
binding to albumin [1]: absence of binding to albumin | cytotoxic induction (cell viability) on SK-BR-3 cells ([2]; Aff01 tested as fusion Aff02-0/Pe38 (SEQ ID NO: 5), different nanofitin concentrations): dose-dependent cytotoxic induction | cell internalization through HER2 receptor ([2]; concluded from cell death induction by Pe38 fusion): effective transport of Pe38 through HER2 receptor | affinity to HER2 (HER2): nanomolar affinity | alteration of cell viability on MCF-7 cells [3]: no significant alterations

B2: affitin Aff02-0 (designed binder)
chain: MRGSHHHHHHGSVKVKFWGAGVEKEVDTSKITWVTRSGKYVIFTYDDNGKAGPGRVPEKDAPKELLDMLARAEREK
notes: also called unlabeled Aff02-0 affitin
Kd [4]: 18 nM | koff [4]: 0.0083 s⁻¹ | kon [4]: 450000 M⁻¹ s⁻¹ | koff ([5]; unlabeled affitin): 8.3 ± 0.1 × 10^−3 s^−1 | kon ([5]; unlabeled affitin): 4.5 ± 0.1 × 10^5 M^−1s^−1

B3: IRDye800CW-Aff02 conjugate (designed binder)
chain: MRGSHHHHHHGSVKVKFWGAGVEKEVDTSKITWVTRSGKYVIFTYDDNGKAGPGRVPEKDAPKELLDMLARAEREKC
modifications: chain 1 pos 77: Cys carrying IRDye800CW through a maleimide thioether, written C
notes: Aff02 was reduced with TCEP, then coupled to IRDye800CW-maleimide at the C-terminal Cys
Kd [6]: 1.6 nM

B4: IRDye800CW-Aff02: fluorophore IRDye800CW-maleimide conjugated to the C-terminal cysteine of affitin Aff02 (conjugate)
chain: MRGSHHHHHHGSVKVKFWGAGVEKEVDTSKITWVTRSGKYVIFTYDDNGKAGPGRVPEKDAPKELLDMLARAEREKC
modifications: cyclised or stapled
clearance pathway [7]: preferably cleared by the renal pathway | Half life in muscle ([7]; iv): 2.122 h | Half life in whole body ([7]; iv): 2.196 h | average half-life (muscle and whole body) ([7]; iv): 2.16 h | Kd (dissociation equilibrium constant) of the complex IRDye800CW-Aff02 conjugate/hHER2 ([5]; steady state analysis): in the nanomolar range

B5: Aff02: 77 aac variant of SEQ ID NO: 1 with a Cys at the C-terminus and a hexahistidine tag at the N-terminus (protein)
chain: MRGSHHHHHHGSVKVKFWGAGVEKEVDTSKITWVTRSGKYVIFTYDDNGKAGPGRVPEKDAPKELLDMLARAEREKC
competition with trastuzumab and pertuzumab for binding to HER2, assay c / overall (HER2/Fc chimeric protein; antibody-biotin curves in presence or absence of Aff02, FIGS. 4a, 4b): no competition; also recorded: do not compete for binding to HER2 | binding to HER2 receptor (ELISA) (HER2/Fc chimeric protein; assay a, FIG. 2): binders for HER2 receptor | Aff02 response (anti RSGH-Tag Ab detection) with increasing trastuzumab-biotin or pertuzumab-biotin, assay b (HER2/Fc chimeric protein; fixed 10 μg/mL Aff02, variable antibody-biotin, FIGS. 3a, 3b): negligible response decrease | epitope competition, assay a (HER2/Fc chimeric protein; variable Aff02 (0.01-10000 ng/mL) with 0.2 μg/mL trastuzumab-biotin or pertuzumab-biotin, FIG. 2): epitopes recognized by trastuzumab and pertuzumab are different from that recognized by Aff02
